From patent US20230067225A1
Substitutions are numbered along the chain they refer to. In names and notes the source's numbering stands.

B1: wild-type TEVΔ (TEVΔ-S219V), purified with His tag from bacteria (protein)
chain: HHHHHHGESLFKGPRDYNPISSTICHLTNESDGHTTSLYGIGFGPFIITNKHLFRRNNGTLLVQSLHGVFKVKNTTTLQQHLIDGRDMIIIRMPKDFPPFPQKLKFREPQREERICLVTTNFQTKSMSSMVSDTSCTFPSSDGIFWKHWIQTKDGQCGSPLVSTRDGFIVGIHSASNFTNTNNYFTSVPKNFMELLTNQEAQQWVSGWRLNADSVLWGGHKVFMV
B2: uTEV1Δ (TEVΔ/S219V + S153N), purified with His tag from bacteria (protein)
chain: B1 chain with S159N
B3: uTEV2Δ (TEVΔ/S219V + T30A + S153N), purified with His tag from bacteria (protein)
chain: B1 chain with T36A, S159N
B4: uTEV3, full-length (HIS6-MBP-TEV I138T S153N T180A, S219V) (protein)
chain: GESLFKGPRDYNPISSTICHLTNESDGHTTSLYGIGFGPFIITNKHLFRRNNGTLLVQSLHGVFKVKNTTTLQQHLIDGRDMIIIRMPKDFPPFPQKLKFREPQREERICLVTTNFQTKSMSSMVSDTSCTFPSSDGTFWKHWIQTKDGQCGNPLVSTRDGFIVGIHSASNFTNTNNYFASVPKNFMELLTNQEAQQWVSGWRLNADSVLWGGHKVFMVKPEEPFQPVKEATQLMNELVYSQ

Tests used:
[1] = molecular target: CD4-HA-CIBN-2xMKII-NNES-heLOV-GAL4 (FLARE transcription factor component) (Arabidopsis thaliana); assay: cell-based or functional assay
[2] = molecular target: B2Ar-heLOV-TEVcs-Gal4-V5 (SPARK transcription factor component) (UniProt P07550); assay: cell-based or functional assay
[3] = molecular target: MBP-TEVcs(ENLYFQ/M)-eGFP [MBP: P0AEX9]
[4] = molecular target: MBP-TEVcs(ENLYFQ/S)-eGFP [MBP: P0AEX9]
[5] = molecular target: MBP-TEVcs(ENLYFQ/S)-eGFP [MBP: P0AEX9]; assay: Michaelis-Menten fit of the in-gel fluorescence cleavage assay, purified protease with the substrate titrated; the filing defines affinity as Km

Row | Molecule | turnover rate (kapp) [3] [s⁻¹] | turnover rate (kapp), fold against wild-type TEVΔ [3] | further results
1 | eGFP-CaM-TEVΔ/S219V + S153N (FLARE protease component with uTEV1Δ) (enzyme) | – | – | FLARE mCherry reporter, high/low Ca+2 signal ratio [1]: 12; FLARE mCherry reporter, signal-to-background ratio [1]: 12.2
2 | HA-arrestin-TEVΔ/S153N (SPARK protease component with uTEV1Δ) (enzyme) | – | – | SPARK mCherry reporter, +/-agonist signal ratio [2]: 20.7
3 | B1 | 0.01 | – | –
4 | B2 | 0.054 | 5.4- and 6.2-fold higher than wild-type | –
5 | B3 | 0.062 | 5.4- and 6.2-fold higher than wild-type | –
6 | B4 | – | – | kcat/Km, fold against wild-type TEV [4]: a 2.8-fold increase in kcat/Km; fold improvement of Km against wild-type TEV [5]: Km improved by 3-fold
